Data published in the supplement of paper PMC10126150.
± gives the standard deviation of the averaged measurements.

Tested on: ATP
Test: switch fluorescence ratio, 500 uM ATP over buffer (Cy3 cluster intensity, sum of 5 cycles each) (fold (ratio)); higher = stronger signal-on switching upon ATP binding; sequences stand for … in TCGTCGGCAGCGTCAGATGTGTATAAGAGACAGTTTTTTTTTTTTTTTTTTTTTTTTT…TC
Settings: aptamer strand: ATP DNA aptamer (quencher-CACCTGGGGGAGTATTGCGGAGGAAGG + anchor), 100 nM annealed; ATP concentration: 500 uM
How it was run: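 Cy3-labelled switching-strand clusters on a modified Illumina MiSeq flow-cell were annealed to 100 nM quencher-labelled ATP aptamer, imaged in selection buffer, then imaged after 15 min with 500 uM ATP at 22 °C. Five buffer/ATP cycles ran, with NaOH stripping and re-annealing between them. The fluorescence ratio is summed target-cycle over summed buffer-cycle Cy3 intensity per cluster, averaged per switch-domain sequence. Clusters outside 100-1000 RFU were excluded.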
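Also: ATP exposure 15 min at 22 °C before imaging.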

GTGGTTGGGT
switch fluorescence ratio: 0.979 ± 0.023

GTGGTTGTAT
switch fluorescence ratio: 0.974 ± 0.015

GTGGTTGTCG
switch fluorescence ratio: 0.983 ± 0.015

GTGGTTGTTT
switch fluorescence ratio: 1.01 ± 0.049

GTGTAAATAG
switch fluorescence ratio: 1.01 ± 0.025

GTGTAAATCT
switch fluorescence ratio: 1.036 ± 0.0046

GTGTAAGTA
switch fluorescence ratio: 0.9702 ± 0.0042

GTGTACAAAT
switch fluorescence ratio: 0.9896 ± 0.0041

GTGTACGTGG
switch fluorescence ratio: 1.008 ± 0.0057

GTGTAGAGGG
switch fluorescence ratio: 1 ± 0.048

GTGTATGGAT
switch fluorescence ratio: 1.023 ± 0.0066

GTGTATGTTT
switch fluorescence ratio: 1.01 ± 0.028

GTGTCATAGT
switch fluorescence ratio: 0.9923 ± 0.0016

GTGTCCCTC
switch fluorescence ratio: 1.01 ± 0.04

GTGTCCTTGG
switch fluorescence ratio: 1.006 ± 0.0084

GTGTCGCGGG
switch fluorescence ratio: 0.962 ± 0.013

GTGTCGTTTG
switch fluorescence ratio: 1 ± 0.032

GTGTCTGTTG
switch fluorescence ratio: 0.981 ± 0.02

GTGTGACAAC
switch fluorescence ratio: 0.975 ± 0.013

GTGTGCCGCA
switch fluorescence ratio: 0.977 ± 0.031

GTGTGCGGGG
switch fluorescence ratio: 1.06 ± 0.079

GTGTGGAGGA
switch fluorescence ratio: 1.03 ± 0.037

GTGTGGCACT
switch fluorescence ratio: 0.9989 ± 0.0056

GTGTGGCGGG
switch fluorescence ratio: 0.996 ± 0.011

GTGTGGCTGG
switch fluorescence ratio: 0.9398 ± 0.0088

GTGTGGGAGC
switch fluorescence ratio: 1 ± 0.06

GTGTGGGTTC
switch fluorescence ratio: 0.982 ± 0.012

GTGTGTGTAA
switch fluorescence ratio: 1.01 ± 0.045

GTGTGTTTGT
switch fluorescence ratio: 0.955 ± 0.038

GTGTTAAAAT
switch fluorescence ratio: 1.01 ± 0.018

GTGTTACTTT
switch fluorescence ratio: 0.99 ± 0.017

GTGTTAGAT
switch fluorescence ratio: 0.964 ± 0.043

GTGTTAGGGT
switch fluorescence ratio: 0.984 ± 0.035

GTGTTATGTG
switch fluorescence ratio: 0.9504 ± 0.0021

GTGTTCGCTT
switch fluorescence ratio: 0.984 ± 0.0099

GTGTTCGGGG
switch fluorescence ratio: 0.998 ± 0.021

GTGTTCTCGC
switch fluorescence ratio: 0.999 ± 0.05

GTGTTGGTAT
switch fluorescence ratio: 1.01 ± 0.034

GTGTTGTTGC
switch fluorescence ratio: 0.981 ± 0.0012

GTGTTGTTGT
switch fluorescence ratio: 0.998 ± 0.016

GTGTTTAAGT
switch fluorescence ratio: 0.962 ± 0.014

GTGTTTAATT
switch fluorescence ratio: 1.03 ± 0.035

GTGTTTAGGA
switch fluorescence ratio: 1.02 ± 0.018

GTGTTTAGGG
switch fluorescence ratio: 0.999 ± 0.021

GTGTTTGGCT
switch fluorescence ratio: 0.972 ± 0.024

GTGTTTGTCA
switch fluorescence ratio: 0.981 ± 0.017

GTTAAAAGGG
switch fluorescence ratio: 1.01 ± 0.028

GTTAAAGATA
switch fluorescence ratio: 0.9918 ± 0.00016

GTTAAATGGT
switch fluorescence ratio: 1 ± 0.031

GTTAACAGTT
switch fluorescence ratio: 0.989 ± 0.027

GTTAACCAGC
switch fluorescence ratio: 1.05 ± 0.016

GTTAACGGGT
switch fluorescence ratio: 0.997 ± 0.02

GTTAACTAAT
switch fluorescence ratio: 1.57 ± 0.85

GTTAAGGGGA
switch fluorescence ratio: 0.999 ± 0.021

GTTAATACCC
switch fluorescence ratio: 1.04 ± 0.014

GTTAATAGTG
switch fluorescence ratio: 0.988 ± 0.021

GTTAATCTTA
switch fluorescence ratio: 0.9873 ± 0.0036

GTTAATTAGC
switch fluorescence ratio: 1.03 ± 0.041

GTTACAGAGA
switch fluorescence ratio: 1.003 ± 0.0011

GTTACGTTAT
switch fluorescence ratio: 1.13 ± 0.078

GTTACTGGCC
switch fluorescence ratio: 1.01 ± 0.0068

GTTACTTAGC
switch fluorescence ratio: 1.04 ± 0.082

GTTAGAAGGG
switch fluorescence ratio: 0.978 ± 0.023

GTTAGAGGGA
switch fluorescence ratio: 0.99589 ± 4.1e-05

GTTAGCAAGG
switch fluorescence ratio: 1.08 ± 0.018

GTTAGCAGGG
switch fluorescence ratio: 1.01 ± 0.044

GTTAGCTAAT
switch fluorescence ratio: 0.987 ± 0.034

GTTAGGGGCA
switch fluorescence ratio: 1 ± 0.072

GTTAGGGTAT
switch fluorescence ratio: 0.9975 ± 0.004

GTTAGGTGGC
switch fluorescence ratio: 0.931 ± 0.021

GTTAGTACGG
switch fluorescence ratio: 0.9819 ± 0.0036

GTTAGTAGCT
switch fluorescence ratio: 0.97 ± 0.013

GTTAGTGCGA
switch fluorescence ratio: 1.01 ± 0.037

GTTAGTGGCT
switch fluorescence ratio: 0.9906 ± 0.0034

GTTAGTTAGG
switch fluorescence ratio: 0.976 ± 0.025

GTTATAATCC
switch fluorescence ratio: 1.037 ± 0.0076

GTTATACGGT
switch fluorescence ratio: 0.997 ± 0.057

GTTATAGAGG
switch fluorescence ratio: 1.03 ± 0.042

GTTATAGCGG
switch fluorescence ratio: 0.976 ± 0.018

GTTATAGCTA
switch fluorescence ratio: 0.9859 ± 0.0061

GTTATATCGC
switch fluorescence ratio: 0.985 ± 0.03

GTTATATGGT
switch fluorescence ratio: 1.02 ± 0.021

GTTATATTGA
switch fluorescence ratio: 0.999 ± 0.026

GTTATATTGT
switch fluorescence ratio: 0.9943 ± 0.0096

GTTATCATTA
switch fluorescence ratio: 1.02 ± 0.03

GTTATCGAGG
switch fluorescence ratio: 1.02 ± 0.011

GTTATCTCTT
switch fluorescence ratio: 0.996 ± 0.033

GTTATGTCTG
switch fluorescence ratio: 1.03 ± 0.065

GTTATGTTTG
switch fluorescence ratio: 1.01 ± 0.045

GTTATTAGTG
switch fluorescence ratio: 0.993 ± 0.016

GTTATTCGGT
switch fluorescence ratio: 0.991 ± 0.023

GTTATTGCGT
switch fluorescence ratio: 0.982 ± 0.05

GTTATTGGGT
switch fluorescence ratio: 0.988 ± 0.046

GTTATTTAGT
switch fluorescence ratio: 0.967 ± 0.05

GTTATTTGGA
switch fluorescence ratio: 0.971 ± 0.069

GTTATTTGGT
switch fluorescence ratio: 0.992 ± 0.04

GTTATTTTTT
switch fluorescence ratio: 0.987 ± 0.028

GTTCAAATGA
switch fluorescence ratio: 0.987 ± 0.017

GTTCAAGGAA
switch fluorescence ratio: 0.9937 ± 0.0036

GTTCCGGGGA
switch fluorescence ratio: 1.02 ± 0.016

GTTCCGGTCG
switch fluorescence ratio: 1.07 ± 0.098

GTTCCTGGGG
switch fluorescence ratio: 1.03 ± 0.019

GTTCCTTTTT
switch fluorescence ratio: 1.02 ± 0.064

GTTCGTGATA
switch fluorescence ratio: 1.05 ± 0.043

GTTCTAGATT
switch fluorescence ratio: 1.03 ± 0.067

GTTCTAGGAG
switch fluorescence ratio: 1 ± 0.019

GTTCTAGGTT
switch fluorescence ratio: 0.9961 ± 0.0044

GTTCTATGC
switch fluorescence ratio: 1 ± 0.079

GTTCTCAGAT
switch fluorescence ratio: 0.982 ± 0.013

GTTCTGGGCT
switch fluorescence ratio: 0.973 ± 0.016

GTTCTGGGGC
switch fluorescence ratio: 0.986 ± 0.028

GTTGAAACGT
switch fluorescence ratio: 1.06 ± 0.023

GTTGAAGG
switch fluorescence ratio: 0.9986 ± 0.0032

GTTGAATGGG
switch fluorescence ratio: 0.977 ± 0.011

GTTGAGAGGA
switch fluorescence ratio: 0.9636 ± 0.0018

GTTGAGAGTT
switch fluorescence ratio: 1.01 ± 0.015

GTTGAGGAGG
switch fluorescence ratio: 0.9891 ± 0.0086

GTTGATCCTT
switch fluorescence ratio: 0.9987 ± 0.0075

GTTGATCTGG
switch fluorescence ratio: 1.01 ± 0.011

GTTGATTAGC
switch fluorescence ratio: 0.981 ± 0.077

GTTGATTATG
switch fluorescence ratio: 0.995 ± 0.014

GTTGCAGCTG
switch fluorescence ratio: 0.962 ± 0.037

GTTGCAGTTA
switch fluorescence ratio: 0.9986 ± 0.0029

GTTGCATTAT
switch fluorescence ratio: 1.028 ± 0.0041

GTTGCCAAAG
switch fluorescence ratio: 0.9726 ± 0.0022

GTTGCGAATT
switch fluorescence ratio: 0.971 ± 0.038

GTTGCGCACA
switch fluorescence ratio: 1.024 ± 0.0097

GTTGCTGTTT
switch fluorescence ratio: 1 ± 0.048

GTTGGAAACA
switch fluorescence ratio: 0.945 ± 0.01

GTTGGAAGCA
switch fluorescence ratio: 1.1 ± 0.18

GTTGGAATGG
switch fluorescence ratio: 1.01 ± 0.014

GTTGGAGGGA
switch fluorescence ratio: 1.01 ± 0.032

GTTGGAGTGT
switch fluorescence ratio: 0.9511 ± 0.0068

GTTGGATAGG
switch fluorescence ratio: 1.01 ± 0.016

GTTGGATGGA
switch fluorescence ratio: 0.9966 ± 0.0062

GTTGGCAGGC
switch fluorescence ratio: 1.03 ± 0.028

GTTGGCATTT
switch fluorescence ratio: 1.05 ± 0.092

GTTGGCGGGA
switch fluorescence ratio: 1.02 ± 0.042

GTTGGGACTG
switch fluorescence ratio: 1 ± 0.055

GTTGGGAGCC
switch fluorescence ratio: 0.99 ± 0.01

GTTGGGATAA
switch fluorescence ratio: 1 ± 0.038

GTTGGGCCCA
switch fluorescence ratio: 1 ± 0.016

GTTGGGCCGT
switch fluorescence ratio: 0.987 ± 0.038

GTTGGGCTAT
switch fluorescence ratio: 0.9916 ± 0.0024

GTTGGGGGAC
switch fluorescence ratio: 1.09 ± 0.086

GTTGGGGGCA
switch fluorescence ratio: 0.968 ± 0.049

GTTGGGGTAT
switch fluorescence ratio: 1.06 ± 0.11

GTTGGGGTCA
switch fluorescence ratio: 0.988 ± 0.011

GTTGGGGTCG
switch fluorescence ratio: 0.998 ± 0.037

GTTGGGGTGA
switch fluorescence ratio: 1.05 ± 0.02

GTTGGGTATC
switch fluorescence ratio: 0.998 ± 0.023

GTTGGTCTAC
switch fluorescence ratio: 1.04 ± 0.018

GTTGGTGCGG
switch fluorescence ratio: 0.999 ± 0.034

GTTGGTGGCT
switch fluorescence ratio: 0.9581 ± 0.0026

GTTGGTGGGG
switch fluorescence ratio: 0.957 ± 0.035

GTTGTAATAG
switch fluorescence ratio: 1.09 ± 0.031

GTTGTACTGG
switch fluorescence ratio: 0.944 ± 0.03
